Test results reported in IntAct's records for PubMed 31515488.

B1: Medium-chain acyl-CoA ligase ACSF2, mitochondrial (Homo sapiens), Q96CM8 (parent)
chain: MAVYVGMLRLGRLCAGSSGVLGARAALSRSWQEARLQGVRFLSSREVDRMVSTPIGGLSYVQGCTKKHLNSKTVGQCLETTAQRVPEREALVVLHEDVRLTFAQLKEEVDKAASGLLSIGLCKGDRLGMWGPNSYAWVLMQLATAQAGIILVSVNPAYQAMELEYVLKKVGCKALVFPKQFKTQQYYNVLKQICPEVENAQPGALKSQRLPDLTTVISVDAPLPGTLLLDEVVAAGSTRQHLDQLQYNQQFLSCHDPINIQFTSGTTGSPKGATLSHYNIVNNSNILGERLKLHEKTPEQLRMILPNPLYHCLGSVAGTMMCLMYGATLILASPIFNGKKALEAISRERGTFLYGTPTMFVDILNQPDFSSYDISTMCGGVIAGSPAPPELIRAIINKINMKDLVVAYGTTENSPVTFAHFPEDTVEQKAESVGRIMPHTEARIMNMEAGTLAKLNTPGELCIRGYCVMLGYWGEPQKTEEAVDQDKWYWTGDVATMNEQGFCKIVGRSKDMIIRGGENIYPAELEDFFHTHPKVQEVQVVGVKDDRMGEEICACIRLKDGEETTVEEIKAFCKGKISHFKIPKYIVFVTNYPLTISGKIQKFKLREQMERHLNL
partner: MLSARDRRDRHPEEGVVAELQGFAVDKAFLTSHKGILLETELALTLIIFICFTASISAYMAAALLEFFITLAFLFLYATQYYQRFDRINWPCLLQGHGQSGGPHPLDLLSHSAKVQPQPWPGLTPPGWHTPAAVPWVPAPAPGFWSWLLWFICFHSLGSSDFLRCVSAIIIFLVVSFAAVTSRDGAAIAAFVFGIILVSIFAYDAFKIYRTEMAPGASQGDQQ
B2: Modulator of apoptosis 1 (Homo sapiens), Q96BY2 (parent)
chain: MTLRLLEDWCRGMDMNPRKALLIAGISQSCSVAEIEEALQAGLAPLGEYRLLGRMFRRDENRKVALVGLTAETSHALVPKEIPGKGGIWRVIFKPPDPDNTFLSRLNEFLAGEGMTVGELSRALGHENGSLDPEQGMIPEMWAPMLAQALEALQPALQCLKYKKLRVFSGRESPEPGEEEFGRWMFHTTQMIKAWQVPDVEKRRRLLESLRGPALDVIRVLKINNPLITVDECLQALEEVFGVTDNPRELQVKYLTTYQKDEEKLSAYVLRLEPLLQKLVQRGAIERDAVNQARLDQVIAGAVHKTIRRELNLPEDGPAPGFLQLLVLIKDYEAAEEEEALLQAILEGNFT
partner: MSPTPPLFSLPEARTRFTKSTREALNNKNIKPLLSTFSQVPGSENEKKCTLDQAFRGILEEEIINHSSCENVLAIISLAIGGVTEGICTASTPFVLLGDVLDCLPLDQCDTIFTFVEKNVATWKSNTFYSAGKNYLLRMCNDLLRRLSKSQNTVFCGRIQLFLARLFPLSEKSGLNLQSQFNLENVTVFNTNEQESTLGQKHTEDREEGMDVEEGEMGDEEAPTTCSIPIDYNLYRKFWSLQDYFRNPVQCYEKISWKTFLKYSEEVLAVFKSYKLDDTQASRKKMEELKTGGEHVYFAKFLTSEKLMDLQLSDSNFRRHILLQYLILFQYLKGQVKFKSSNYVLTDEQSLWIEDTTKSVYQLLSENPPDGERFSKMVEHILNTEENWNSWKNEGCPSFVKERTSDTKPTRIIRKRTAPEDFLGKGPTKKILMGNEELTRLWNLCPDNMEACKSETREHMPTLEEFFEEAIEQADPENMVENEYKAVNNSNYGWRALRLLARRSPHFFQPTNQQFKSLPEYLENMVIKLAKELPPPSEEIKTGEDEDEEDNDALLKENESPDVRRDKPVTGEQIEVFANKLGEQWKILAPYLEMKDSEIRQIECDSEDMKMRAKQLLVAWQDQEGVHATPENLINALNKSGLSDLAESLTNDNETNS
B3: Probable RNA-binding protein EIF1AD (Homo sapiens), Q8N9N8 (parent)
chain: MSQATKRKHVVKEVLGEHIVPSDQQQIVRVLRTPGNNLHEVETAQGQRFLVSMPSKYRKNIWIKRGDFLIVDPIEEGEKVKAEISFVLCKDHVRSLQKEGFWPEAFSEVAEKHNNRNRQTQPELPAEPQLSGEESSSEDDSDLFVNTNRRQYHESEEESEEEEAA
partner: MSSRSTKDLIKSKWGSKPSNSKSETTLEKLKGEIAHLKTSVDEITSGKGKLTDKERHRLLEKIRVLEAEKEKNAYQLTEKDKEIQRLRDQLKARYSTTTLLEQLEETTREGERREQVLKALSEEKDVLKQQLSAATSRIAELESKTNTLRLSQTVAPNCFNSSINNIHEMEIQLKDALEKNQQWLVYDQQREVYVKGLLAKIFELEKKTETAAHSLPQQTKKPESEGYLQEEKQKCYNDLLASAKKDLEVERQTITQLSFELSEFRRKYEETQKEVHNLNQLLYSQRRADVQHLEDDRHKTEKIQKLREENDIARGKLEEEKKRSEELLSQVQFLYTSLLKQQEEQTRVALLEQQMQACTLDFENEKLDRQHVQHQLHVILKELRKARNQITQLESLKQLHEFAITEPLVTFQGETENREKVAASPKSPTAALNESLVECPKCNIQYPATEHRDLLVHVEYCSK
B4: Protein LDOC1 (Homo sapiens), O95751 (parent)
chain: MVDELVLLLHALLMRHRALSIENSQLMEQLRLLVCERASLLRQVRPPSCPVPFPETFNGESSRLPEFIVQTASYMLVNENRFCNDAMKVAFLISLLTGEAEEWVVPYIEMDSPILGDYRAFLDEMKQCFGWDDDEDDDDEEEEDDY
partner: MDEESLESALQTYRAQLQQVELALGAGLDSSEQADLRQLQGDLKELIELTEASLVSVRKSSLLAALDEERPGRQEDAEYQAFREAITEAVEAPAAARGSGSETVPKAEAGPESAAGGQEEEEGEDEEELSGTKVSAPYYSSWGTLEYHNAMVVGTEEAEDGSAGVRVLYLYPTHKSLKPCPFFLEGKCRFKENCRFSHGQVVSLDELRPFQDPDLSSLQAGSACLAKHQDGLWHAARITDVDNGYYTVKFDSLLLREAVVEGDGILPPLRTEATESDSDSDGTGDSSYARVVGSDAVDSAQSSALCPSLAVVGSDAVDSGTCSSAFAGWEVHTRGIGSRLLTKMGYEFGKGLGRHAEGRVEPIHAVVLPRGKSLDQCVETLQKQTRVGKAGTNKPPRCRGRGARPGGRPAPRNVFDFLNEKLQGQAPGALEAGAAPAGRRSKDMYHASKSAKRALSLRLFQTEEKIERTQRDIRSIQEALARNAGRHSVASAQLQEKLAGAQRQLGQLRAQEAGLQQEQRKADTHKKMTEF

Variants of: B1
Settings: with cklf5_human CMTM5, Q96DZ9

Row | effect of a mutation on the interaction | Variant
1 | disrupting interaction strength | G19W

Variants of: B2
Settings: with thoc1_human THOC1, Q96FV9

Row | effect of a mutation on the interaction | Variant
2 | with no effect | MTLRLLEDWCRGMDMNPRKALLIAGISQSCSVAEIEEALQAGLAPLGEYRLLGRMFKRDENRKVALVGLTAETSHALVPKEIPGKGGIWRVIFKPPDPDNTFLSRLNEFLAGEGMTVGELSRALGHENGSLDPEQGMIPEMWAPMLAQALEALQPALQCLKYKKLRVFSGRESPEPGEEEFGRWMFHTTQMIKAWQVPDVEKRRRLLESLRGPALDVIRVLKINNPLITVDECLQALEEVFGVTDNPRELQVKYLTTYQKDEEKLSAYVLRLEPLLQKLVQRGAIERDAVNQARLDQVIAGAVHKTIRRELNLPEDGPAPGFLQLLVLIKDYEAAEEEEALLQAILEGNFT [R57K]

Variants of: B3
Settings: with cep55_human CEP55, Q53EZ4

Row | effect of a mutation on the interaction | Variant
3 | with no effect | MSQATKRKHVVKEVLGEHIVPSDQQQIVRVLRTPGNNLHEVETAQGQCFLVSMPSKYRKNIWIKRGDFLIVDPIEEGEKVKAEISFVLCKDHVRSLQKEGFWPEAFSEVAEKHNNRNRQTQPELPAEPQLSGEESSSEDDSDLFVNTNRRQYHESEEESEEEEAA [R48C]

Variants of: B4
Settings: with zgpat_human ZGPAT

Row | effect of a mutation on the interaction | Variant
4 | disrupting interaction strength | L12H
